Measured values reported in paper PMC3836757.

Columns and labels:
[1] = biological target: RNA polymerase core enzyme;sigma 70 (RpoD) (Escherichia coli;Ehrlichia chaffeensis) (UniProt P0A7Z4+P0A8V2+P0A8T7+P0A800+Q2GG75); test: EMSA; settings: 50 mM Tris-acetate pH 8.0, 50 mM K-acetate, 8.1 mM Mg-acetate, 27 mM NH4-acetate, 100 ug/ml BSA, 5% glycerol, 50 ug/ml poly(dI-dC), 20 fmol each probe and RNAP …
[2] = biological target: RNA polymerase core enzyme;sigma 32 (RpoH) (Escherichia coli;Ehrlichia chaffeensis) (UniProt P0A7Z4+P0A8V2+P0A8T7+P0A800+Q2GGG9); test: EMSA; settings: 50 mM Tris-acetate pH 8.0, 50 mM K-acetate, 8.1 mM Mg-acetate, 27 mM NH4-acetate, 100 ug/ml BSA, 5% glycerol, 50 ug/ml poly(dI-dC), 20 fmol each probe and RNAP …

Sequence | binding [1] | binding [2]
ATTGCAGATTAATTAATAATGCTTTAAGTAATAACAAATAAATTTAGTTGACTATATGAACTAACCTAATATCCTAAATCTTGTTCAGTTATGTAAAATTAGGAGTTAAAATTA (double strand) [hup promoter probe] | binds | binds more weakly
CTGACGTAATATATTAAATTTTCCTTACAAAAGTTACCGATATTTTATACAAAAATTTATATTCTGACTTGCTTTTATATGACACTTCTACTATTGTTAATTTATTTGTCACTATTAGGTTATATATGAATTACA (double strand) [p28-Omp19 promoter probe] | binds | binds more weakly
TAACTTACTTAAAAAATTAACTACTTAAATATCAACGATGTTTTCAGTATCAAGTCAATTGATTTTTTATGTGTTATGTAAACTGTTACAGAGTAATATAATATTTCTACTGGGTCCTATAAAGTTCTAACCTTGTAAACATTTGTGCAATATGTATTATAAAATTTATTGATTGATACTTGAAATTAGATTTCTTGATATTATATATGATCTTAGCTAGTAGTATCTGATGCTACTGATAATTTATTTTTTTATAGAGGTAG (double strand) [groE promoter probe] |  | binds
AAGCAAGTCTACTCATATTTTTATTAATTAAGTAGTAAAGTTAACTATAGATTTTATTAAAATTTTTATTCTAATCACTTTAAATATCAATTACTTTTGTTGTAAATTTGAAAGAAATTTTATATTCTAGACTTGCTTTTCTTTATTTCTTTCATTATTCTTAAATTTTTATTATCTTTTATAAAAGGTTTATTAACATG (double strand) [p28-Omp14 promoter probe] | binds | binds more weakly
TTCATAAATTTATGAACTTGTGTTAAATGGGGTTGTAATCTTATGATTTGGTTATTATATCTGTGATTATAGTTTTGATTTTTATGTAAGGGGGCTATTTATGGCTGTTATAGGTATAGATTTAGGTAC (double strand) [dnaK promoter probe] |  | binds
